# B1: dsRNA targeting a 192 nt length: dsRNA to Nicotiana benthamiana PDS, positions 914-1105 of SEQ ID NO:38 (nucleic acid, listed as Nicotiana benthamiana)
# DNA: ACAGATTTCTTCAGGAGAAACATGGTTCAAAAATGGCCTTTTTAGATGGTAACCCTCCTGAGAGACTTTGCATGCCGATTGTGGAACATATTGAGTCAAAAGGTGGCCAAGTCAGACTAAACTCACGAATAAAAAAGATCGAGCTGAATGAGGATGGAAGTGTCAAATGTTTTATACTGAATAATGGCAGTA
# modifications: dsRNA of this region
# B2: EPSPS anti-sense polynucleotides: SEQ ID NOS:279-284, anti-sense to Nicotiana benthamiana EPSPS (nucleic acid)
# antisense 1: CTGTGATCATCATATGTATCA
# antisense 2: CCTTAACTCTCCAGCTAGCAA
# antisense 3: CAGCCCGCAAATGTTTCATTC
# antisense 4: GCCGTCAATGGCCGCATTGCT
# antisense 5: TCCTTCCCTCAGAAAGGGCAG
# antisense 6: TTGCCTCATGCTGCTAATCTG
# modifications: listed as DNA, chemistry not given here
# B3: #6: Anti-sense_PO1, PO2, PO3, PO4 (SEQ ID NOs: 8, 9, 10, 11) (nucleic acid, listed as Amaranthus palmeri)
# antisense 1: ACCCTCCACGACTGCCCTTT
# antisense 2: GTTTCCTTCACTCTCCAGC
# antisense 3: GTAGCTTGAGCCATTATTGT
# antisense 4: GTTGATGGTAGTAGCTTGAG
# modifications: DNA, backbone not given here
# B4: dsRNA targeting a 685 nt length: dsRNA to Nicotiana benthamiana PDS, positions 421-1105 of SEQ ID NO:38 (nucleic acid, listed as Nicotiana benthamiana)
# DNA: GCAAGAGATGTCCTAGGTGGGAAGGTAGCTGCATGGAAAGATGATGATGGAGATTGGTACGAGACTGGGTTGCACATATTCTTTGGGGCTTACCCAAATATGCAGAACCTGTTTGGAGAACTAGGGATTGATGATCGGTTGCAGTGGAAGGAACATTCAATGATATTTGCGATGCCTAACAAGCCAGGGGAGTTCAGCCGCTTTGATTTTCCTGAAGCTCTTCCTGCGCCATTAAATGGAATTTTGGCCATACTAAAGAACAACGAAATGCTTACGTGGCCCGAGAAAGTCAAATTTGCTATTGGACTCTTGCCAGCAATGCTTGGAGGGCAATCTTATGTTGAAGCTCAAGACGGTTTAAGTGTTAAGGACTGGATGAGAAAGCAAGGTGTGCCTGATAGGGTGACAGATGAGGTGTTCATTGCCATGTCAAAGGCACTTAACTTCATAAACCCTGACGAGCTTTCGATGCAGTGCATTTTGATTGCTTTGAACAGATTTCTTCAGGAGAAACATGGTTCAAAAATGGCCTTTTTAGATGGTAACCCTCCTGAGAGACTTTGCATGCCGATTGTGGAACATATTGAGTCAAAAGGTGGCCAAGTCAGACTAAACTCACGAATAAAAAAGATCGAGCTGAATGAGGATGGAAGTGTCAAATGTTTTATACTGAATAATGGCAGTA
# modifications: dsRNA of this region
# How the values were obtained:
# endogenous EPSPS = test: EPSPS mRNA, EPSPS protein and shikimate in detached leaves after anti-sense ssDNA petiole uptake (Example 9); design: species or system Amaranthus palmeri; settings: for increasing glyphosate efficacy, shikimate accumulation: 50 microgram/mL glyphosate; for suppressing levels of EPSPS mRNA and protein: 48 h incubation, #1 5 microM, #6 5 microM each (20 microM total), compared with other treatments
# Experimental: Petioles of detached leaves of glyphosate-resistant Palmer amaranth were placed in 200 mM sucrose solution with oligonucleotides according to the treatments listed in Table 2. Control leaves were permeated with the anti-sense control (SEQ ID NO:14), and additionally treated with or without 50 micrograms/mL glyphosate. EPSPS mRNA, EPSPS protein, and shikimate levels were measured after 48 h incubation. To assess the effects of anti-sense ssDNA oligonucleotides on EPSPS mRNA, total leaf RNA was isolated and quantitative real-time RT-PCR was performed to compare EPSPS mRNA levels. To assess the effects of anti-sense ssDNA oligonucleotides on EPSPS protein, total leaf soluble protein was isolated, separated by SDS-PAGE, and EPSPS protein levels measured by Western blot using antibodies against maize EPSPS_TIPA. Effects of anti-sense ssDNA oligonucleotides on shikimate accumulation as an indication of suppression of EPSPS were assessed in two experiments: in experiment 1, the oligonucleotide-treated leaves were incubated with 50 microgram/mL glyphosate for an additional 48 h either by petiole uptake (control leaves were permeated with the anti-sense control (SEQ ID NO:14), and additionally treated with or without 50 micrograms/mL glyphosate); in experiment 2, leaf disc assays were performed on the oligonucleotide-treated leaves, and shikimate levels measured by HPLC (controls in this case were leaves that had not been treated with oligonucleotides but incubated with 50 microgram/mL glyphosate).
# [1] = tested on: Nicotiana benthamiana phytoene desaturase; test: Single PDS ssDNA oligonucleotide treatment, systemic silencing in organs and seed set (Example 12); assay type: in vivo
# Experimental: Four-week old tobacco (Nicotiana benthamiana) plants were used in all treatments. Two fully expanded leaves (one cotyledon, one true leaf) were conditioned by dipping into freshly made surfactant solution (0.1% Silwet L-77 in double-distilled water) for a few seconds and allowed to dry for 15-30 minutes. Twenty microliters of a single-stranded DNA (ssDNA) 22-mer oligonucleotide with the sequence […] (SEQ ID NO:39), corresponding to the nucleotides at positions 1099-1120 of Nicotiana benthamiana phytoene desaturase (SEQ ID NO:2) was applied as a 25 micromolar solution in 0.01% Silwet L-77 in 5 millimolar sodium phosphate buffer, pH 6.8 to the top surface of each conditioned leaf for a total of 40 microliters (1 nanomole oligonucleotide) per plant. Control plants were treated with the Silwet solution without the DNA oligonucleotide.
# Flowers of both control and ssDNA-treated plants were allowed to set seed. Seeds were collected from mature fruits, weighed, and allowed to germinate. Seed weights were identical (about 11 mg per 100 seeds) and seed morphology appeared similar between the ssDNA-treated and the control plants.
# In a separate assay using a similar procedure, tobacco plants were conditioned by dipping in 0.1% Silwet L-77 in double-distilled water, allowed to dry for 15-30 minutes, and treated with the PDS ssDNA 22-mer (SEQ ID NO:39) applied as a 25 micromolar solution in 0.01% Silwet L-77 in 5 millimolar sodium phosphate buffer, pH 6.8 to the top surface of each conditioned leaf for a total of 40 microliters (1 nanomole oligonucleotide) per plant. Other plants were not conditioned with a surfactant treatment, but were treated only with 1 nanomole of the PDS ssDNA 22-mer (SEQ ID NO:39) applied either by infiltration with a needleless syringe (shown in FIG. 18B) or by hand application of drops to the leaf surface (not shown in FIG. 18B), and either as a 25 micromolar solution in 0.01% Silwet L-77 in 5 millimolar sodium phosphate buffer, pH 6.8 or as a 25 micromolar solution in 5 millimolar sodium phosphate buffer, pH 6.8 (without surfactant). Negative control plants were treated with the Silwet buffer solution without the DNA oligonucleotide. Results are depicted in FIG. 18B.
# [2] = tested on: Palmer amaranth phytoene desaturase (PDS); test: Sequence specificity of PDS dsRNA on Palmer amaranth, bleaching (Example 11); assay type: in vivo; settings: 0.6 micromolar polynucleotide, 40 microliters per plant; observed 3 days post treatment
# Experimental: Palmer amaranth plants having 16 copies of EPSPS and 5-8 inches high were treated with 0.1% Silwet L-77 solution freshly made with ddH2O. Four fully expanded leaves per plant were dipped into the Silwet L-77 solution for a few seconds, and allowed to dry for 30 minutes to 1 hour before application of the polynucleotide composition. Individual polynucleotide solutions were made for each of the 678 by Palmer PDS dsRNA, 198 by Palmer PDS dsRNA, the 685 by Nicotiana benthamiana PDS dsRNA, and the 192 by Nicotiana benthamiana PDS dsRNA (0.6 micromolar polynucleotide in 0.01% Silwet L-77, 5 mM sodium phosphate buffer, pH 6.8). 10 microliters of polynucleotide solution (or buffer as a control) was applied to the top surface of each of the four pre-treated leaves per plant to provide a total of 40 microliters for each plant. Plants were kept in a growth chamber, and leaf bleaching was observed 3 days post treatment.
# [3] = tested on: mRNA encoding phytoene desaturase in tobacco (Nicotiana benthamiana); test: Topical PDS dsRNA on tobacco, bleaching (Example 4); assay type: in vivo; settings: for plant outcome: 15 days after treatment with dsRNA; for phytoene desaturase silencing, leaf bleaching: day 9 after dsRNA treatment, about 0.6 micromoles of dsRNA per plant; for Northern blot analysis, siRNAs corresponding to the dsRNAs: in vivo
# Text: This example illustrates the utility of the polynucleotide molecules of the invention as herbicidal agents. Two dsRNA polynucleotide molecules were designed to target overlapping segments of mRNA encoding phytoene desaturase in tobacco (Nicotiana benthamiana). With reference to SEQ ID NO:2 and FIG. 5, a dsRNA targeting a 192 nt length (shown in bold in FIG. 5) and a 685 nt length (shown in underline in FIG. 5) of the mRNA were made using an Ambion® MEGAscript® kit. Separate dsRNA solutions were prepared. Tobacco plant leaves were pretreated with surfactant solution prepared as in Example 1 and then treated with either one of the dsRNA solutions applying about […] of dsRNA per plant.
# [4] = tested on: endogenous PDS, EPSPS, or RuBisCO genes from Nicotiana benthamiana; test: PDS, EPSPS, RuBisCO anti-sense polynucleotides on Nicotiana benthamiana, plant height (Example 33); assay type: in vivo; settings: PDS 25 nanomoles, EPSPS and RuBisCO 50 nanomoles of each per plant
# Experimental: Nicotiana benthamiana plants were treated using a procedure similar to that described in Example 12. Polynucleotide solution (or mixed polynucleotides in the case of EPSPS and RuBisCO) were prepared in 0.01% (v/v) Silwet L-77 and 2% (w/v) ammonium sulfate in 5 millimolar sodium phosphate, pH 6.8. Two fully expanded leaves per plant were dipped into 0.1% Silwet L-77 solution freshly made with ddH2O for a few seconds, and allowed to dry. About 30 minutes later, 20 microliters of polynucleotide solution, was applied to each of the two pre-treated leaves. For PDS, each of 5 plants received 25 nanomoles of the PDS anti-sense polynucleotide (SEQ ID NO:34); for EPSPS, each of 5 plants received 50 nanomoles of each EPSPS anti-sense polynucleotide (SEQ ID NOS:279-284); and for RuBisCO, each of 5 plants received 50 nanomoles of each RuBisCO anti-sense polynucleotide (SEQ ID NOS:288-295). Paired control plants were treated with buffer (0.01% (v/v) Silwet L-77 and 2% (w/v) ammonium sulfate in 5 millimolar sodium phosphate, pH 6.8).
Molecule,"increasing glyphosate efficacy, shikimate accumulation (endogenous EPSPS)",suppressing levels of EPSPS mRNA and protein (endogenous EPSPS),bleaching of leaves [2],plant outcome [3],"phytoene desaturase silencing, leaf bleaching [3]","Northern blot analysis, siRNAs corresponding to the dsRNAs [3]",also measured
"Anti-sense_PO1: SEQ ID NO:8, ssDNA anti-sense to Amaranthus palmeri EPSPS (antisense ACCCTCCACGACTGCCCTTT; listed as DNA, chemistry not fully specified; listed as Amaranthus palmeri)",increased accumulation of shikimate,more efficacious,–,–,–,–,–
"PDS ssDNA 22-mer: SEQ ID NO:39, GGCAGTACAATTAAAGGAGATG, positions 1099-1120 of SEQ ID NO:2 (DNA, backbone not given here; listed as Nicotiana benthamiana)",–,–,–,–,–,–,"amount of seed produced per fruit ([1]; compared to control plants): reduced amount of seed produced per fruit; bleaching of apical leaves, stems, and flowers ([1]; leaves conditioned with 0.1% Silwet L-77, 1 nanomole per plant): all displayed bleaching; germination rate ([1]; seeds from treated plants, control 95 out of 100): 4 out of 100; seed weight ([1]; seeds from treated plants, identical to control): about 11 mg per 100 seeds; bleaching of apical leaves, stems, and flowers ([1]; without conditioning by Silwet L-77, 1 nanomole by infiltration or hand application of drops): displayed bleaching of apical leaves, stems, and flowers"
B1,–,–,did not show bleaching of leaves,one half of the treated plants appeared to be dead and the other half of the plants had most of the above ground tissues bleached,visible leaf bleaching on apical leaves,presence of siRNAs,–
B2,–,–,–,–,–,–,plant height (FIG. 36) ([4]; 12 days (PDS and EPSPS) or 10 days (RuBisCO) after treatment): severe stunting; other phenotype [4]: severe damage to the meristem and stem tissues
B3,increased accumulation of shikimate,more efficacious,–,–,–,–,–
B4,–,–,did not show bleaching of leaves,one half of the treated plants appeared to be dead and the other half of the plants had most of the above ground tissues bleached,visible leaf bleaching on apical leaves,presence of siRNAs,–
